Experimental data published in publication PMC8750153.

Target: PpPex11 H2 WT peptide (Pichia pastoris)
Experiment: pull-down; biotinylated peptides on streptavidin affinity gel as bait; soluble lysate fraction of His6-tagged GFP-Pex11s as prey, 1 h at room temperature; 50 mM Tris pH 8.0, 50 mM NaCl, 5 mM EDTA; anti-GFP immunoblot

For His6-GFP-Pex11 (natural protein), the fold binding against the H3 peptide was 2.5 fold.
